Assay results: publication PMC9785345

Tests used:
[1] = molecular target: recombinant SARS-CoV-2 spike receptor-binding domain (rRBD), Wuhan-Hu-1 isolate, residues 319-541 wi (SARS-CoV-2) (UniProt P0DTC2); test: non-reducing SDS-PAGE with western blot
[2] = molecular target: recombinant SARS-CoV-2 spike receptor-binding domain (rRBD), Wuhan-Hu-1 isolate, residues 319-541 wi (SARS-CoV-2) (UniProt P0DTC2); test: SEC
[3] = molecular target: recombinant SARS-CoV-2 spike receptor-binding domain (rRBD), Wuhan-Hu-1 isolate, residues 319-541 wi (SARS-CoV-2) (UniProt P0DTC2); test: non-reducing SDS-PAGE

**Q.** For “recombinant SARS-CoV-2 spike receptor-binding domain (rRBD), Wuhan-Hu-1 isolate, residues 319-541 wi (from UniProt P0DTC2 319-541) (domain or fragment)”, which percent dimer of total rRBD (4 dpi) [1] is on record?
**A.** 17.9%

**Q.** And the stoichiometry N [1]?
**A.** 2

**Q.** And the stoichiometry N [2]?
**A.** 2

**Q.** And the stoichiometry N [3]?
**A.** 2
